Test [1] concerns the target StayGold (CU17S/V168A) (Cytaeis uchidae). In words: AUC; sedimentation equilibrium; purified recombinant StayGold at 2.8 uM in 50 mM HEPES-NaOH (pH 7.4), 24 C, absorbance at 497 nm.
The target is the same in test [2]. Nature of the test: pseudonative SDS-PAGE; non-heated protein samples separated on 10% polyacrylamide gels.

One may read the stoichiometry N as a count of units in the complex or per binding partner. In the case of “StayGold (CU17S/V168A) (natural protein)”, the stoichiometry N in test [1] and in test [2] was 2 throughout.

For the origin of these results see publication PMC9287174.
